Assay: soluble on expression in E. coli; label from the status in PepcDB or PDB records

| Sequence | soluble on expression in E. coli |
| --- | --- |
| VPRGSAKGDGVTDDTAALTSALNDTPVGQKINGNGKTYKVTSLPDISRFINTRFVYERIPGQPLYYASEEFVQGELFKITDTPYYNAWPQDKAFVYENVIYAPYMGSDRAGVSRLHVSWVKSGDDGQTWSTPEWLTDLHPDYPTVNYHCMSMGVCRNRLFAMIETRTLAKNALTNCALWDRPMSRSLHLTGGITKAANQRYATIHVPDHGLFVGDFVNFSNSAVTGVSGDMTVATVIDKDNFTVLTPNQQTSDLNNAGKNWHMGTSFHKSPWRKTDLGLIPSVTEVHSFATIDNNGFAMGYHQGDVAPREVGLFYFPDAFNSPSNYVRRQIPSEYEPDASEPCIKYYDGVLYLITRGTRGDRLGSSLHRSRDIGQTWESLRFPHNVHHTTLPFAKVGDDLIMFGSERAENEWEAGAPDDRYKASYPRTFYARLNVNNWNADDIEWVNITDQIYQGGIVNSGVGVGSVVVKDNYIYYMFGGEDHFNPWTYGDNSAKDPFKSDGHPSDLYCYKMKIGPDNRVSRDFRYGAVPNRAVPVFFDTNGVRTVPAPMEFTGDLGLGHVTIRASTSSNIRSEVLMEGEYGFIGKSIPTDNPAGQRIIFCGGEGTSSTTGAQITLYGANNTDSRRIVYNGDEHLFQSADVKPYNDNVTALGGPSNRFTTAYLGSNPIVT | soluble |
| MKIGIDAGGTLIKIVQEHDNRRYYRTELTTNIQKVIDWLNNEEIETLKLTGGNAGVIADQIHHSPEIFVEFDASSKGLEILLDEQGHQIEHYIFANVGTGTSFHYFDGKDQQRVGGVGTGGGMIQGLGYLLSNITDYKELTNLAQNGDRDAIDLKVKHIYKDTEPPIPGDLTAANFGNVLHHLDNQFTSANKLASAIGVVGEVITTMAITLAREYKTNHVVYIGSSFNNNQLLREVVENYTVLRGFKPYYIENGAFSGALGALYLLEHHHHHH | soluble |
| MKQVCVLGNGQLGRMLRQAGEPLGIAVWPVGLDAEPAAVPFQQSVITAEIERWPETALTRQLARHPAFVNRDVFPIIADRLTQKQLFDKLHLPTAPWQLLAERSEWPAVFDRLGELAIVKRRTGGYDGRGQWRLRANETEQLPAECYGECIVEQGINFSGEVSLVGARGFDGSTVFYPLTHNLHQDGILRTSVAFPQANAQQQARAEEMLSAIMQELGYVGVMAMECFVTPQGLLINELAPRVHNSGHWTQNGASISQFELHLRAITDLPLPQPVVNNPSVMINLIGSDVNYDWLKLPLVHLHWYDKEVRPGRKVGHLNLTDSDTSRLTATLEALIPLLPPEYASGVIWAQSKFG | soluble |
| MAHHHHHHMNSPVVKMKAVKNDVEIDNMKQAHILDGLALLQFFHWCEQKRKTKELFNETEMSLRHKVDYFRSTKKNFIFPSFSTISASGPNAAVIHYECTDKTNATIKPAIYLLDSGGQYLHGTTDVTRTTHFGEPTAEEKRIYTLVLKGHLRLRKVIFASYTNSSALDFIARENLFNNFMDYNHGTGHGVGLTLNVHEGGCSIGPVGGAPLKKNMVLSNEPGYYMKDKFGVRIENMQYVISKEITDTTEYLSFDDLTMYPYEKKLLDFSLLTNQEIKELNEYHTTIRNTLLPLVKQSPQEYGESVEKYLIEITEPIAIHNN | not soluble |
| MGSDKIHHHHHHLRNSIDLTKKIKEKAFEEGFDAVGIAKVPGSSRIKLRTASLERWLQAGHQATMEWMKSPRRKDIENMLQGVKSILAVGLNYYVDTERESKDISIARYGWGKDYHKIIEEKLKKVAKFLETERPNAKWKICVDTSAFLDKAWAEEAGIGWIGKHSNVINSEIGSWMFLGHLLSTEVLEADKPSKPICGECEKCIEACPTKAIEEPFIVNSYKCLAYHTLENRDQELPENIINKMGNWIAGCDICQDVCPWNQKHIPSTTEPDLQPSEWILHTTKQDLLSWDDAKWKESLKNSALKRIKPWMWRRNIDSISKKT | not soluble |
| MNDVDVLVVGAGALGLACAARLAEAGHGVLVAERERLVGSHTSSRNSEVIHAGLYYPPGSLKADLCLEGRERLYAWCARHGVGHRRIGKLLVAVEENERERLQALAANARACGVDDLMPLDGTTLRALEPQVRGVAALLSPSTGIIDSHAYLQSLQAVAERHGAQLALDTRVDRLERHAGGWRAEGQSVGEAFRLRAGWVVNAGGLFAQALAQRTEGLDPRLVPALHLCQGRYFSYSGRSPFRHLVYPMPEARTAGLGIHATLDLGGQLRFGPDVNYVDNLDYRVDESLRPAFAQVISRYFPGIDPRRLAAGYAGIRPKLGGPGEPAADFIIQTPAEHGLPGLVNLFGIESPGLTASLALAERVARALLEHHHHHH | not soluble |
| MGSDKIHHHHHHMMNIPPFINTIIGQQPYPLLFAIISGSHLYGFPSPDSDYDLRGVHILPVEEVVGLETGNETIEVSEIREALEIDLVTHDVKKFFLMLLKKNGYVLEQLYSPLVLTTSPEAEELKFIAKGCITRNHYYHYIGFAATQWKLFENERTYRLKPLLYVYRVLLTGIYLMQTGIVEANLMKLNEVFNLPYIHDLITQKIAGKEKSVVSNVNVDFHQIEYERLRHKLQEVYESSRLPEVPSANAALHNLLVRLRTNVKLRK | not soluble |
| MGSDKIHHHHHHMSMSVQQIDWDLALIQKYNYSGPRYTSYPTALEFSEDFGEQAFLQAVARYPERPLSLYVHIPFCHKLCYFCGCNKIVTRQQHKADQYLDALEQEIVHRAPLFAGRHVSQLHWGGGTPTYLNKAQISRLMKLLRENFQFNADAEISIEVDPREIELDVLDHLRAEGFNRLSMGVQDFNKEVQRLVNREQDEEFIFALLNHAREIGFTSTNIDLIYGLPKQTPESFAFTLKRVAELNPDRLSVFNYAHLPTIFAAQRKIKDADLPSPQQKLDILQETIAFLTQSGYQFIGMDHFARPDDELAVAQREGVLHRNFQGYTTQGDTDLLGMGVSAISMIGDCYAQNQKELKQYYQQVDEQGNALWRGIALTRDDCIRRDVIKSLICNFRLDYAPIEKQWDLHFADYFAEDLKLLAPLAKDGLVDVDEKGIQVTAKGRLLIRNICMCFDTYLRQKARMQQFSRVI | not soluble |
| MFIPQIVPIRDLKNTSAISNLCHKTNEPIFITKNGYGDMVIMSMETYEGNAFFNNLYGNLEEAEMDLQNGRVSGIDEAIEEIKSRYDLEHHHHHH | not soluble |
| MYQETKQFYHLWLLAVQERDEAREHLKQSLVELSRLQECFNTILLSEDQQIPHYSYSETTDETPDHQKLYSYNNFSNESPSRFSSASSIDLVSNSTVYSSPETYDSDCYSLRTLQMGFAFEEKKDFETLVLENIGLGRMLPENGKFQQAIIEAGSLVDSLFITGPIPKWRNPPVQMLSQRPLLSHSIGKWNYGGQGIINRSFSGKMPRLSLMP | soluble |
| MSETVQLDVGGTIFKTSKSTLTKFNGFLKIMLESDIGLKIDESGSIFIDRSPKHFDLILNFMRDGDVVLPSCELTVKELLAEAQFYLLDELIELCSLKIEPVQAPKIKLRFIENDSQLLQILAAQQKPMLIIEYCMVGNDMSIPYNFNLYEFIEKQSHQFDIYFQRLSEDESSHKWKARIKWKPTENGYYSQFPYNLRINRGGRIIRDAKFLFLFFSSWLSSKNHCSLLDMCMIPIDCIVCPFQKISMCVPSLIRIPISSRFISRNIKIISFGLQR | soluble |
| MAKSLTFSTFSPNNTLKKNVIPIVLLHGWGLNSGVWQPLLELFHRNDESIYQLITIDLPGFGINSAVDIKPYSLANICHHIEQVIDQPAIYLGWSLGGLIATEMSLKYPEKVLASITVASSPYFVEQPTDNWPGIKENVLESFHKQLAQDTAKTISGFLKIQAMGSPHIRQDLKLITQLVMAHTLPSQQTLADSLALLSNSDLRLHLSKIKQPLLRLYGHNDSLVPKEVMEKISYLAPNSDQHLFADASHAPFISHLDDFYQVLVVWLDSHFNLEHHHHHH | not soluble |
| HSSGLVPRGSHMAIIFPGQGAQKVGMAQDLFNNNDQATEILTSAAKTLDFDILETMFTDEEGKLGETENTQPALLTHSSALLAALKNLNPDFTMGHSLGEYSSLVAADVLSFEDAVKIVRKRGQLMAQAFPTGVGSMAAVLGLDFDKVDEICKSLSSDDKIIEPANINCPGQIVVSGHKALIDELVEKGKSLGAKRVMPLAVSGPFHSSLMKVIEEDFSSYINQFEWRDAKFPVVQNVNAQGETDKEVIKSNMVKQLYSPVQFINSTEWLIDQGVDHFIEIGPGKVLSGLIKKINRDVKLTSIQTLEDVKGWNEND | soluble |
| MPLCLKINKKHGEQTRRILIENNLLNKDYKITSEGNYLYLPIKDVDEDILKSILNIEFELVDKELEEKKIIKKPSFREIISKKYRKEIDEGLISLSYDVVGDLVILQISDEVDEKIRKEIGELAYKLIPCKGVFRRKSEVKGEFRVRELEHLAGENRTLTIHKENGYRLWVDIAKVYFSPRLGGERARIMKKVSLNDVVVDMFAGVGPFSIACKNAKKIYAIDINPHAIELLKKNIKLNKLEHKIIPILSDVREVDVKGNRVIMNLPKFAHKFIDKALDIVEEGGVIHYYTIGKDFDKAIKLFEKKCDCEVLEKRIVKSYAPREYILALDFKINKK | soluble |
| MGRQGSLALLLSIILIGETIANEYDGLSSHQSHQSTVTSAPIHVSEQQTSRNRPYNQPQLQQKPSVLTQSYQVLPESRNYYQYPQYLPTHTGYSNIQTVGQPYQMYGSAPGSNVVSGGNSESYGYNQQAPVPTVAPAPVHFSERQRSYSAAPTPPSPFSETRERENNNVRAPGHHAPAQQGHRSPSPPPSPFMINPKPVLSYGAANPFLANLPPAQGVYGAPIDSSHRGYDGFSLSAPAPPSGSSASVDDTWEALEASLDANTRRRHRIF | not soluble |
| GPGSMTVLRRMRLTFVGTGVSSAVPVIGHLTTDCACRDAIANPSGPNRRNNVSLLISLPFAEGKSGVEWHHVLIDCGKTFRSAYMRVLAPMRVQYVDALLITHGHADAMHCVEELCGMQAEAAARYAQSVSPSSLPSSAGRTLASAVVPRTLRRVPTFLTAPTLDQIAMVSPELVTQSFHIGAAPTTGTAYHSALAATADMTARSSSSAEVLSTVMDIFYMDDTKPQRMHVPFGPLSLAASAARGVNATDAASDLPFYSFPVEHGKGYISMAWVFGRGTAFKSRQTQQQQQGSCVVYISDVSHIPATSMAFLQDLVKIDVLVLDLLAEHGAPSASHYCADEAIPLVVALAPRRTYFVGMFCSLEHHRTNEAFARELAELKMRYRDELEVVVPGSSAPAVTDTDREKKLAFVNRVCSMELAYDGQELDMDA | not soluble |
| MSPETMFFQDEDSRNLATNFIANYLKLWDANRSELMILYQNESQFSMQVDSSHPHLIESGNSGYSGSTDFGYYLNNSRNLTRVSSIKARMAKLSIGQEQIYKSFQQLPKTRHDIIATPELFSMEVYKFPTLNGIMITLHGSFDEVAQPEVDGSASSAPSGPRGGSRYHSGPKHKRIPLSKKSFDRTFVVIPGPNGSMIVASDTLLIRPYTSDFPWKVQK | soluble |
| MSNPVTITEAAALHIKDMMKEHEEENAFLRVGVKGGGCSGLSYGMGFEHEKSESDSVFDQHGITVLVDKESLDIMNGTVIDYKQSMLGGGFTIDNPNAIASCGCGSSFRTATNAGKPEEC | soluble |
| SLIKFLSALILLLVTTAAQAERIRDLTSVQGVRQNSLIGYGLVVGLDGTGDQTTQTPFTTQTLNNMLSQLGITVPTGTNMQLKNVAAVMVTASLPPFGRQGQTIDVVVSSMGNAKSLRGGTLLMTPLKGVDSQVYALAQGNILVGGAGASAGGSSVQVNQLNGGRITNGAVIERELPSQFGVGNTLNLQLNDEDFSMAQQIADTINRVRGYGSATALDARTIQVRVPSGNSSQVRFLADIQNMQVNVTPQDAKVVINSRTGSVVMNREVTLDSCAIAQGNLSVTVNRQANVSQPDTPFGGGQTVVTPQTQIDLRQSGGSLQSVRSSASLNNVVRALNALGATPMDLMSILQSMQSAGCLRAKLEII | not soluble |
| MNPLKAGDIAPKFSLPDQDGEQVNLTDFQGQRVLVYFYPKAMTPGCTVQACGLRDNMDELKKAGVDVLGISTDKPEKLSRFAEKELLNFTLLSDEDHQVCEQFGVWGEKSFMGKTYDGIHRISFLIDADGKIEHVFDDFKTSNHHDVVLNWLKEHA | soluble |
| YNGQSETSQQPETPVFNTLPMMGKASPVSLGVPSEATANNGQQQQVQEQRRRINAMLQDYELQRRLHSEQLQFEQAQTQQAAVQVPGIQTLGTQSQ | soluble |
